# According to patent US20110097323A1:
# Tests used:
# CD16A F158 (human) = CD16A F158 (human) (UniProt P08637); test: Table 3; relative to wild-type Fc; method not stated
# CD32B (FcγRII-B) = CD32B (FcγRII-B) (UniProt P31994); test: as above
# CD16A V158 (human) = CD16A V158 (human) (UniProt P08637); test: as above
# HER-2 = HER-2 (UniProt P04626); test: SPR (BIAcore 1000), HER-2 amine-coupled to chip, antibody injected at 6.25-200 nM
# Chain of CD32B (FcγRII-B) (P31994 43-217 limits assumed): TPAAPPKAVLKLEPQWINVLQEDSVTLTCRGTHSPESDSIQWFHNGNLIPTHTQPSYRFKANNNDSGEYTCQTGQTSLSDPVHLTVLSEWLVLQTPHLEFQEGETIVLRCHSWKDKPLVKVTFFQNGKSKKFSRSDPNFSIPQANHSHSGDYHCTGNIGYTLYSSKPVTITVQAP
# Chain of CD16A F158 (human) (P08637 17-208 limits assumed): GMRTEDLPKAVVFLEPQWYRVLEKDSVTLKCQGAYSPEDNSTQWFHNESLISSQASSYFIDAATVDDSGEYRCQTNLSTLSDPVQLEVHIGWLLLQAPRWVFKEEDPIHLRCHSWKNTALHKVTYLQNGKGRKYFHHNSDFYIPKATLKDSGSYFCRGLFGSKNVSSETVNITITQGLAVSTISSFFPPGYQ
# Chain of CD16A V158 (human) (P08637 17-208 F176V limits assumed): as the sequence (P08637 17-208 limits assumed) above, with F160V counted along it
binding relative to wild-type Fc (fold) (CD16A F158 (human)),binding relative to wild-type Fc (fold) (CD32B (FcγRII-B)),binding relative to wild-type Fc (fold) (CD16A V158 (human)),koff (HER-2) [s⁻¹],kon (HER-2) [M⁻¹ s⁻¹],Substance
2.3,0.32,6.69,–,–,Fc variant F243L R292P P300L (from UniProt P0DOX5 228-449)
–,–,–,6.3e-06,110000,ch4D5 (antibody)
1.37,0.37,1.14,–,–,Fc variant V284M R292P K370N (from UniProt P01857 99-330)
3.12,1.05,–,–,–,Fc variant F243I R292P Y300L V305I P396L (from UniProt P01857 99-330)
